Reference: US12624096B2, “Anti-tau antibodies and methods of use thereof” (GTInvent Limited, priority 2020, dated 2026)

Experiments:
hT40 [1] = target: T1, hT40 (Homo sapiens, UniProt P10636); assay: Biacore X100 SPR, scAb captured via anti-HuCk, hT40 as analyte; assay type: binding; settings: scAb
Procedure, shortened: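 Captured scAb on anti-HuCk CM5 surface (flow cell 1 as reference) in HBS-EP+, capture set for theoretical RMax 100 RU; hT40 injected multi-cycle (0.15625–100 nM) or single-cycle (6.25–100 nM), 120 s association, 420 s dissociation, glycine pH 2.0 regeneration. Kinetics and affinity from 1:1 binding model fit.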

dGAE = dGAE (Homo sapiens, UniProt P10636); assay: Biacore X100 SPR, scAb captured via anti-HuCk, dGAE as analyte; assay type: binding; settings: dissociation rate
Description: Surface plasmon resonance (SPR) is widely regarded as the gold standard for real time measurement of protein-protein interactions such as antibody binding. All SPR experiments were carried out using a Biacore X100 machine and HBS EP+ running buffer (GE Healthcare). A ‘capture’ method was followed for affinity measurements, where an anti-human constant kappa chain (HuCk) antibody was conjugated to the surface of a CM5 sensor chip using an amine coupling kit and scAb molecules were immobilised via their HuCk domain. Amine coupling is a very common approach for immobilising the ligand to the chip surface. The chip surface has a dextran matrix derivatised with carboxyl groups, which after activation with N-hydroxysuccinimide (NHS) and 1-ethyl-3-(3-dimethylaminopropyl) carbodiimide (EDC), form reactive succinimide esters which allows the covalent capturing of the ligand via any available primary amine groups (e.g. Lysine) on the ligand (in this case anti-HuCk antibody). The capture antibody was diluted 1/100 in 10 mM Sodium acetate buffer pH 5.0 and passed over the activated chip surface for a period of at least 420 s. […]
The single cycle kinetics protocol was similar and utilised the same level of scAb capture. […] Binding responses were analysed in Biacore X100 evaluation software and data fitted to a 1:1 binding model to obtain kinetic and affinity characterisation.

[2] = test system: hT40, dGA, dGAE and truncated tau fragments/peptides; assay: Binding ELISA for epitope mapping with truncated tau proteins and biotinylated 13mer peptides; set-up: species or system human; settings: direct binding ELISA
Description: A series of binding ELISA was performed using various truncated versions of the tau protein and 13mer peptide libraries spanning the entire hT40 molecule for mapping the epitopes of anti-tau scAbs (Full list of protein antigens used is given in Table 14). In general, ELISA plates were coated with 1 μg/ml hT40 or dGA or dGAE or other truncated versions of the protein and in the case of biotinylated peptides, plates were coated with 5 μg/ml Streptavidin followed by 1 μg/ml biotinylated peptide. The plates were blocked with 2% MPBS and scAb samples added at desired starting concentrations and double diluted across the plate. Binding was detected using anti-Human C Kappa HRP conjugated secondary antibody and the resulting immunoreaction was developed and absorbance values measured as described above.
Similarly, dGA binding ‘NS’, ‘S’ and ‘M’ group scAbs were subjected to further antigen binding ELISA using shorter tau proteins and biotinylated 13mer peptides as shown below (FIGS. 10A-F) and (FIGS. 11A-R).
For anti-tau mAb SPR measurements (Biacore X100™) and epitope mapping, the same methodologies described above (see Example 16) were followed.

aggregated dGAE = aggregated dGAE (Homo sapiens, UniProt P10636); assay: Capture ELISA ranking of mAbs on dGAE aggregates; assay type: binding; settings: 1 μg/ml capture mAb, 800 nM aggregated dGAE
Description: The aggregation cascade of natively unfolded tau into insoluble filaments is a defining pathological feature of AD. Therefore, it is logical to target aggregated tau filaments for both therapeutic and diagnostic purposes. The following experiment was performed to assess the ability of our dGA mAb panel to bind aggregated dGAE using a capture ELISA method. Aggregates were prepared by incubating 100 μM dGAE and 10 mM dTT for 24 h at 37° C. with shaking at 700 RPM. The following day, dGAE aggregates were centrifuged at 17,000×g for 20 min and the supernatant was removed. The remaining pellet was washed with 10 mM phosphate buffer and centrifuged as above. Washing was repeated a further two times to remove any remaining dGAE monomer. The dGAE pellet was resuspended in 100 μl of 10 mM phosphate buffer. (Using a separate capture ELISA based quantification, we have worked out the efficiency of our dGAE aggregation as 80%)
For assessing the mAb panel for aggregate binding, designated rows of a maxisorp plate were coated with 1 μg/ml of each of the capture mAbs (S1D12, S1G2, CA4, NS2A1, CE2, E2E8 and CB7) and blocked as before. Following washing, 800 nM aggregated dGAE was added to the designated wells, double diluted across the plate and incubated for 1 h at RT. The plate was washed again and 1 μg/ml S1G2 scAb was added as detection antibody and incubated for 1 h at RT. To the row where S1G2 mAb was used for capture, […] s1D12 scAb was added as […] instead of S1G2. The assay was developed using HRP labelled HuCK as described previously.

hT40 [3] = target: T1, hT40; assay: Sandwich ELISA, limits of detection (LoD) of antibody pairs; assay type: binding; settings: S1D12 mAb capture, detection scAb
Description: Full length tau (hT40), at 1 μg/ml starting concentration was added to designated wells and double diluted across rest of the plates and left to incubate at R/T for 1 h. A series of detection scAbs with varying epitope recognition properties were added at 10 μg/ml to designated wells (FIG. 22). For colourimetric detection HRP conjugated anti-HuCk secondary antibody was used and the resulting immunoreaction was developed and absorbance at 450 nm measured as described previously. Cut-off point for a positive binding event was an absorbance value of 0.3 following background subtraction. In order to enhance the assay sensitivity, a chemiluminescent detection method was adopted where 50 μL SuperSignal ELISA Femto Substrate (Thermo Scientific) was added to each well following incubation with anti-HuCK HRP antibody and subsequent washing. The luminescence was read using Clariostar Plus microplate reader. A further modification to this protocol was done where various detection scAbs were directly conjugated with HRP and detected using chemiluminescent protocol as before. The lowest levels of detection achieved using different detection scAbs and a comparison of colourimetric and chemiluminescent methods of detection are shown in Table 28
The assay was conducted using chemiluminescent protocol described above.

T1 sequence (P10636 1-441 isoform P10636-8): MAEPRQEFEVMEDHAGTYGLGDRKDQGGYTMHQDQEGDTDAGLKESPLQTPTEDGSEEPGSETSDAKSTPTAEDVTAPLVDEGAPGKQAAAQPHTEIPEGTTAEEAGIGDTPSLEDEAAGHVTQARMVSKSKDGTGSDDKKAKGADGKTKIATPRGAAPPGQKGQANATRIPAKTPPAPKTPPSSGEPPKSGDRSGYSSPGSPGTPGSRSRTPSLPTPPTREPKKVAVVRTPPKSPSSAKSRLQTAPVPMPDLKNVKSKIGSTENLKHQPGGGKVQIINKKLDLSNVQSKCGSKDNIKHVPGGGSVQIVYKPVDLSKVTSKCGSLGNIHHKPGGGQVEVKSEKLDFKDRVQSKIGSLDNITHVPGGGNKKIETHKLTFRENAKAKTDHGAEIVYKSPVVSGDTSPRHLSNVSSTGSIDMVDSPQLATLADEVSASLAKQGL
Sequence of dGAE (P10636 614-708): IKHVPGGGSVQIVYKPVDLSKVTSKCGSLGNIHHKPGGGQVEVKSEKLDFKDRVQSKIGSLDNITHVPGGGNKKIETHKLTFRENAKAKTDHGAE
Sequence of aggregated dGAE (P10636 614-708): as above

B1: E2E8: anti-tau clone, SEQ ID NO: 248 (protein)
scFv: QVQLQESGPSLVKPSQTLSLTCTVSGFSLTDRGVAWVRQAPGKALEWVGTMRSGGTIDYNPALKSRLSITRDTSKSQVFLSLSSVTTEDMAMYYCARGYLSGDRYAWGRGLLVTVSSEGKSSGASGESKVDDQAVLTQPSSVSKSLGQSVSIACSGSRSDIGYGNYVSWFQQIPGSAPKLLIYDTNTRASGVPDRFSGARSGNTATLTINSLQAEDEADYYCANIDSSRSHLFGSGTRLTVLG
modifications: E2E8 amino acid sequence
hT40 [1]; Table 23
  T441 binding (in words): No T441 binding
hT40 [1]; Table 26 summary
  hT40 binding (in words): No hT40 binding
dGAE
  Kd: 0.0001915 s⁻¹
[2]
  cross-reactivity of 'E' group scAbs using hT40, dGA and dGAE antigens: specific dGAE binding

B2: E2E8 mAb: E2E8 reformatted as mAb, SEQ ID NO: 493 and 494 (antibody)
heavy: QVQLQESGPSLVKPSQTLSLTCTVSGFSLTDRGVAWVRQAPGKALEWVGTMRSGGTIDYNPALKSRLSITRDTSKSQVFLSLSSVTTEDMAMYYCARGYLSGDRYAWGRGLLVTVSSAKTTAPSVYPLAPVCGDTTGSSVTLGCLVKGYFPEPVTLTWNSGSLSSGVHTFPAVLQSDLYTLSSSVTVTSSTWPSQSITCNVAHPASSTKVDKKIEPRGPTIKPCPPCKCPAPNLLGGPSVFIFPPKIKDVLMISLSPIVTCVVVDVSEDDPDVQISWFVNNVEVHTAQTQTHREDYNSTLRVVSALPIQHQDWMSGKEFKCKVNNKDLPAPIERTISKPKGSVRAPQVYVLPPPEEEMTKKQVTLTCMVTDFMPEDIYVEWTNNGKTELNYKNTEPVLDSDGSYFMYSKLRVEKKNWVERNSYSCSVVHEGLHNHHTTKSFSRTPGK
light: QAVLTQPSSVSKSLGQSVSIACSGSRSDIGYGNYVSWFQQIPGSAPKLLIYDTNTRASGVPDRFSGARSGNTATLTINSLQAEDEADYYCANIDSSRSHLFGSGTRLTVLGGQPKSSPSVTLFPPSSEELETNKATLVCTITDFYPGVVTVDWKVDGTPVTQGMETTQPSKQSNNKYMASSYLTLTARAWERHSSYSCQVTHEGHTVEKSLSRADCS
modifications: E2E8 mAB Heavy Chain; E2E8 mAB Light Chain
Aggregated dGAE
  ability to capture aggregated dGAE: most efficient at capturing aggregated dGAE

B3: E1E8: anti-tau clone, SEQ ID NO: 250 (protein)
scFv: QVQLQESGPSLVKPSQTLSLTCTVSGFSLTDWGVAWVRQAPGKALEWLGTMRSGGTTDDNPALKSRLSITRDTSKSQVSLSLSSVTTEDMAMYYCARGYLSGVHYAWGRGLLVTVSSEGKSSGASGESKVDDQAVLTQPSSVSGSLGQSVSITCSGSSSNVGDGRYVSWFQQVPGSAPKLLIYDTTSRASGVPDRFSGSRSGNTATLIITSLQAEDEADYYCASIDSGNNLLFGSGTRLTVLG
modifications: E1E8 amino acid sequence
dGAE
  Kd: 0.0014 s⁻¹
[2]
  cross-reactivity of 'E' group scAbs using hT40, dGA and dGAE antigens: specific dGAE binding

B4: CA2: anti-tau clone, SEQ ID NO: 363 (protein)
scFv: QVQLQESGPSLVKPSQTLSLTCTVSGFSLSSVAVNWVRQAPGKVPEWLGGIISNGGTGYNPALKSRLSITRDTSKSQVSLALTHVTTEDTAVYYCGRGVEWEGSMDYLGPGLLVTVSSEGKSSGSGSETKVDDQSVLTQPSSVSGFLGQRVTITCSGSSSNVGAGSYVGWYQQVPGSGLRILIYGATKRASGLPDRFSGSRSGNTATLTISSLQAEDEADYYCVSYQTDFTLVFGSGTRLTVLG
modifications: CA2 amino acid sequence
hT40 [3]
  LoD chemiluminescence detection: 0.37 ng/mL
  LoD colourimetric detection: 6 ng/mL
